In the supplement of paper PMC9112550, “Optimization of the antimicrobial peptide Bac7 by deep mutational scanning” (BMC Biology, 2022):

Each sequence was assayed on Escherichia coli TOP10 (assay: shrunken log2 fold change of peptide-encoding DNA abundance (4.5 h post-induction vs induction); higher = less antimicrobial activity (less host growth inhibition)). Conditions: time post-induction: 4.5 h; library: site-saturation at positions 5, 18, 19, 20.
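Further: peptides expressed intracellularly from a pBAD plasmid library in pooled LB shake-flask culture, induced with 0.3% L-arabinose, DNA abundance read by NGS, three biological replicates, DESeq2 with apeglm shrinkage.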

Row | Sequence | shrunken log2 fold change
1 | RRIRHRPPRLPRPRPRPFDYPRP | -0.0282
2 | RRIRHRPPRLPRPRPRPFEIPRP | -0.0931
3 | RRIRHRPPRLPRPRPRPFFLPRP | -0.238
4 | RRIRHRPPRLPRPRPRPFIDPRP | -0.121
5 | RRIRHRPPRLPRPRPRPFIIPRP | -0.00662
6 | RRIRHRPPRLPRPRPRPFIMPRP | -0.505
7 | RRIRHRPPRLPRPRPRPFKCPRP | -0.0134
8 | RRIRHRPPRLPRPRPRPFMHPRP | -0.377
9 | RRIRHRPPRLPRPRPRPFMTPRP | -0.188
10 | RRIRHRPPRLPRPRPRPFNKPRP | -0.01
11 | RRIRHRPPRLPRPRPRPFNVPRP | 1.22
12 | RRIRHRPPRLPRPRPRPFPEPRP | -0.104
13 | RRIRHRPPRLPRPRPRPFPKPRP | 0.0904
14 | RRIRHRPPRLPRPRPRPFPLPRP | -0.0682
15 | RRIRHRPPRLPRPRPRPFQFPRP | 0.0952
16 | RRIRHRPPRLPRPRPRPFQWPRP | -0.139
17 | RRIRHRPPRLPRPRPRPFRMPRP | -0.625
18 | RRIRHRPPRLPRPRPRPFSAPRP | -0.186
19 | RRIRHRPPRLPRPRPRPFSPPRP | 0.0457
20 | RRIRHRPPRLPRPRPRPFSRPRP | -0.0618
21 | RRIRHRPPRLPRPRPRPFSTPRP | -0.304
22 | RRIRHRPPRLPRPRPRPFTNPRP | -0.0272
23 | RRIRHRPPRLPRPRPRPFVSPRP | -0.19
24 | RRIRHRPPRLPRPRPRPFVTPRP | -0.188
25 | RRIRHRPPRLPRPRPRPFWDPRP | -0.0244

Row | Sequence | shrunken log2 fold change
26 | RRIRHRPPRLPRPRPRPFYDPRP | -0.837
27 | RRIRHRPPRLPRPRPRPGACPRP | 0.203
28 | RRIRHRPPRLPRPRPRPGAFPRP | 0.175
29 | RRIRHRPPRLPRPRPRPGALPRP | -0.00348
30 | RRIRHRPPRLPRPRPRPGAVPRP | 0.433
31 | RRIRHRPPRLPRPRPRPGDIPRP | -0.412
32 | RRIRHRPPRLPRPRPRPGEIPRP | 0.761
33 | RRIRHRPPRLPRPRPRPGFAPRP | 0.142
34 | RRIRHRPPRLPRPRPRPGFIPRP | 0.043
35 | RRIRHRPPRLPRPRPRPGFMPRP | 0.0294
36 | RRIRHRPPRLPRPRPRPGFPPRP | 0.336
37 | RRIRHRPPRLPRPRPRPGHIPRP | -0.282
38 | RRIRHRPPRLPRPRPRPGIGPRP | -0.0787
39 | RRIRHRPPRLPRPRPRPGITPRP | -0.453
40 | RRIRHRPPRLPRPRPRPGKCPRP | -0.00911
41 | RRIRHRPPRLPRPRPRPGLQPRP | 0.157
42 | RRIRHRPPRLPRPRPRPGMHPRP | -0.01
43 | RRIRHRPPRLPRPRPRPGMTPRP | -0.039
44 | RRIRHRPPRLPRPRPRPGNAPRP | 0.137
45 | RRIRHRPPRLPRPRPRPGNFPRP | -0.537
46 | RRIRHRPPRLPRPRPRPGRRPRP | 0.525
47 | RRIRHRPPRLPRPRPRPGSGPRP | 0.0563
48 | RRIRHRPPRLPRPRPRPGTHPRP | 0.0646
49 | RRIRHRPPRLPRPRPRPGTIPRP | -0.00536
50 | RRIRHRPPRLPRPRPRPGVMPRP | -0.0309

Row | Sequence | shrunken log2 fold change
51 | RRIRHRPPRLPRPRPRPGVSPRP | 0.0185
52 | RRIRHRPPRLPRPRPRPGWEPRP | 0.274
53 | RRIRHRPPRLPRPRPRPGWKPRP | 0.0976
54 | RRIRHRPPRLPRPRPRPGYWPRP | -0.151
55 | RRIRHRPPRLPRPRPRPHAQPRP | 0.0272
56 | RRIRHRPPRLPRPRPRPHATPRP | 0.0228
57 | RRIRHRPPRLPRPRPRPHCQPRP | -0.0776
58 | RRIRHRPPRLPRPRPRPHCSPRP | -0.124
59 | RRIRHRPPRLPRPRPRPHDKPRP | -0.293
60 | RRIRHRPPRLPRPRPRPHDTPRP | -1.08
61 | RRIRHRPPRLPRPRPRPHEDPRP | 0.0316
62 | RRIRHRPPRLPRPRPRPHELPRP | -0.126
63 | RRIRHRPPRLPRPRPRPHEPPRP | -0.0274
64 | RRIRHRPPRLPRPRPRPHGDPRP | -0.01
65 | RRIRHRPPRLPRPRPRPHGLPRP | 0.15
66 | RRIRHRPPRLPRPRPRPHHTPRP | -0.71
67 | RRIRHRPPRLPRPRPRPHIGPRP | -0.0123
68 | RRIRHRPPRLPRPRPRPHKPPRP | 0.0188
69 | RRIRHRPPRLPRPRPRPHNAPRP | -0.809
70 | RRIRHRPPRLPRPRPRPHNNPRP | -0.714
71 | RRIRHRPPRLPRPRPRPHNQPRP | -0.521
72 | RRIRHRPPRLPRPRPRPHQNPRP | -0.494
73 | RRIRHRPPRLPRPRPRPHQSPRP | -0.0258
74 | RRIRHRPPRLPRPRPRPHRNPRP | -0.117
75 | RRIRHRPPRLPRPRPRPHRVPRP | 0.0179
